Source: patent US20240034774A1 (Gilead, published 2024)
Changes are numbered by the printed parent chain.

B1: 1.33.35-1 (antibody, human IgG1, kappa, V domains shown)
VH: QVQLVQSGAEVKKPGASVRVSCKASGYNIRDYFIHWWRQAPGQGLQWVGWINPKTGQPNNPRQFQGRVTLTRHASWDFDTFSFYMDLKALRSDDTATYFCARQRSDYWDFDVWGSGTQVTVSS
VL: DIQMTQSPSSLSASVGDRVTITCQANGYLNWYQQKPGKAPKLLIYDGSNLETGVPSRFSGSRWGQEYTLTISSLQPEDIATYFCQVYEFVGPGTNLDIKR
B2: 1.34.35-1 (antibody, human IgG1, kappa, V domains shown)
VH: B1 VH with T97V, S105T
VL: B1 VL
B3: 1.36.35-1 (antibody, human IgG1, kappa, V domains shown)
VH: B1 VH with I34M, L70M, F83A, K88S, A89R, S105T, S115Q, Q118M
VL: B1 VL
B4: 1.35.35-1 (antibody, human IgG1, kappa, V domains shown)
VH: B1 VH with I34M, L70M, K88S, A89R, S105T, S115Q, Q118M
VL: B1 VL
B5: Antibody A-3 (antibody, human IgG1, kappa)
heavy: QVQLLQSGAAVTKPGASVRVSCEASGYNIRDYFIHWWRQAPGQGLQWVGWINPKTGQPNNPRQFQGRVSLTRHASWDFDTFSFYMDLKALRSDDTAVYFCARQRSDYWDFDVWGSGTQVTVSSASTKGPSVFPLAPSSKSTSGGTAALGCLVKDYFPEPVTVSWNSGALTSGVHTFPAVLQSSGLYSLSSVVTVPSSSLGTQTYICNVNHKPSNTKVDKKVEPKSCDKTHTCPPCPAPELLGGPDVFLFPPKPKDTLMISRTPEVTCVVVDVSHEDPEVKFNWYVDGVEVHNAKTKPREEQYNSTYRVVSVLTVLHQDWLNGKEYKCKVSNKALPAPEEKTISKAKGQPREPQVYTLPPSREEMTKNQVSLTCLVKGFYPSDIAVEWESNGQPENNYKTTPPVLDSDGSFFLYSKLTVDKSRWQQGNVFSCSVLHEALHSHYTQKSLSLSPGK
light: DIQMTQSPSSLSASVGDTVTITCQANGYLNWYQQRRGKAPKLLIYDGSKLERGVPSRFSGRRWGQEYNLTINNLQPEDIATYFCQVYEFVVPGTRLDLKRTVAAPSVFIFPPSDEQLKSGTASVVCLLNNFYPREAKVQWKVDNALQSGNSQESVTEQDSKDSTYSLSSTLTLSKADYEKHKVYACEVTHQGLSSPVTKSFNRGEC
B6: 1.31.36-1 (antibody, human IgG1, kappa)
heavy: B5 heavy with L5V, A10E, V97T, G242A, A336L
light: DIQMTQSPSSLSASVGDRVTITCQANGYLNWYQQKPGKAPKLLIYDGSNLETGVPSRFSGSRWGQEYTLTISSLQPEDIATYFCQVYEFVTPGTNLDIKRTVAAPSVFIFPPSDEQLKSGTASVVCLLNNFYPREAKVQWKVDNALQSGNSQESVTEQDSKDSTYSLSSTLTLSKADYEKHKVYACEVTHQGLSSPVTKSFNRGEC
B7: 1.34.36-1 (antibody, human IgG1, kappa)
heavy: B5 heavy with L5V, A10E, T12K, E23K, S69T, S105T, G242A, A336L
light: B6 light
B8: Antibody A-5 (antibody, human IgG1, kappa)
heavy: B5 heavy with A336L
light: B5 light
B9: 1.32.36-1 (antibody, human IgG1, kappa)
heavy: B5 heavy with L5V, A10E, S105T, G242A, A336L
light: B6 light
B10: Antibody A-2 (antibody, human IgG1, kappa)
heavy: B5 heavy with G242A, A336L, L434M, S440N
light: B5 light
B11: Antibody A-4 (antibody, human IgG1, kappa)
heavy: B5 heavy with G242A
light: B5 light
B12: 1.33.36-1 (antibody, human IgG1, kappa)
heavy: B5 heavy with L5V, A10E, T12K, E23K, S69T, V97T, G242A, A336L
light: B6 light
B13: Antibody A-6 (antibody, human IgG1, kappa)
heavy: B5 heavy with D245S, F249L, R298P, Y306L, V311I, E338I, P402L
light: B5 light
B14: 1.35.36-1 (antibody, human IgG1, kappa)
heavy: QVQLVQSGAEVKKPGASVRVSCKASGYNIRDYFMHWWRQAPGQGLQWVGWINPKTGQPNNPRQFQGRVTMTRHASWDFDTFSFYMDLSRLRSDDTATYFCARQRTDYWDFDVWGQGTMVTVSSASTKGPSVFPLAPSSKSTSGGTAALGCLVKDYFPEPVTVSWNSGALTSGVHTFPAVLQSSGLYSLSSVVTVPSSSLGTQTYICNVNHKPSNTKVDKKVEPKSCDKTHTCPPCPAPELLAGPDVFLFPPKPKDTLMISRTPEVTCVVVDVSHEDPEVKFNWYVDGVEVHNAKTKPREEQYNSTYRVVSVLTVLHQDWLNGKEYKCKVSNKALPLPEEKTISKAKGQPREPQVYTLPPSREEMTKNQVSLTCLVKGFYPSDIAVEWESNGQPENNYKTTPPVLDSDGSFFLYSKLTVDKSRWQQGNVFSCSVLHEALHSHYTQKSLSLSPGK
light: B6 light
B15: 1.36.36-1 (antibody, human IgG1, kappa)
heavy: B14 heavy with F83A
light: B6 light

What was measured:
gp120 Bal = gp120 Bal (HIV (Bal)); assay: single-point ELISA at EC50 conc. of A-1
gp120 SHIV SF162 P3 = gp120 SHIV SF162 P3 (SHIV SF162 P3); assay: single-point ELISA at EC50 conc. of A-1
gp120 CAAN = gp120 CAAN (HIV (CAAN)); assay: single-point ELISA at EC50 conc. of A-1
BSA = BSA (UniProt P02769 25-607); assay: single-point ELISA, BSA control
[1] = target: HIV-1 envelope glycoprotein gp120 of viral isolate 92US657 (HIV-1); assay: cell-based or functional assay
[2] = target: HIV-1 envelope glycoprotein gp120 of viral isolate 92US712 (HIV-1); assay: cell-based or functional assay

Binder | ELISA A450 (gp120 Bal) [A450] | ELISA A450 (gp120 SHIV SF162 P3) [A450] | ELISA A450 (gp120 CAAN) [A450] | ELISA A450 (BSA) [A450] | ADCC EC50, NK Donor 1 [1] [µg/mL] | ADCC EC50, NK Donor 2 [1] [µg/mL] | ADCC EC50, NK Donor 3 [1] [µg/mL] | ADCC Emax, NK Donor 1 [1] [%] | ADCC Emax, NK Donor 2 [1] [%] | ADCC Emax, NK Donor 3 [1] [%] | ADCC EC50, NK Donor 1 [2] [µg/mL] | ADCC EC50, NK Donor 2 [2] [µg/mL] | ADCC EC50, NK Donor 3 [2] [µg/mL] | ADCC Emax, NK Donor 1 [2] [%] | ADCC Emax, NK Donor 2 [2] [%] | ADCC Emax, NK Donor 3 [2] [%]
B1 | 1.03 | 0.71 | 0.81 | 0.07 |  |  |  |  |  |  |  |  |  |  |  | 
B2 | 0.94 | 0.56 | 0.77 | 0.06 |  |  |  |  |  |  |  |  |  |  |  | 
B3 | 0.89 | 0.16 | 0.36 | 0.06 |  |  |  |  |  |  |  |  |  |  |  | 
B4 | 0.88 | 0.42 | 0.67 | 0.06 |  |  |  |  |  |  |  |  |  |  |  | 
B5 |  |  |  |  | 0.68 | 0.67 | 1.39 | 49 | 49 | 56 | 0.07 | 0.08 | 0.2 | 77 | 59 | 67
B6 | 1.06 | 0.93 | 0.9 | 0.06 |  |  |  |  |  |  |  |  |  |  |  | 
B7 | 0.94 | 0.77 | 0.71 | 0.07 |  |  |  |  |  |  |  |  |  |  |  | 
B8 |  |  |  |  | 0.57 | 0.83 | 0.76 | 58 | 61 | 61 | 0.19 | 0.08 | 0.09 | 79 | 61 | 66
B9 | 0.92 | 0.62 | 0.64 | 0.06 |  |  |  |  |  |  |  |  |  |  |  | 
B10 |  |  |  |  | 0.54 | 0.81 | 1.13 | 59 | 51 | 56 | 0.18 | 0.08 | 0.2 | 76 | 60 | 60
B11 |  |  |  |  | 0.6 | 1.21 | 1.64 | 52 | 53 | 50 | 0.2 | 0.13 | 0.4 | 78 | 61 | 64
B12 | 0.94 | 0.88 | 0.82 | 0.06 |  |  |  |  |  |  |  |  |  |  |  | 
B13 |  |  |  |  | 3.93 | 1.21 | 3.21 | 54 | 53 | 52 | 0.27 | 0.54 | 0.18 | 68 | 54 | 51
B14 | 0.85 | 0.56 | 0.67 | 0.06 |  |  |  |  |  |  |  |  |  |  |  | 
B15 | 1.12 | 0.14 | 0.34 | 0.06 |  |  |  |  |  |  |  |  |  |  |  | 
